The results in this text go back to paper PMC9525012, “Characterization of sabatolimab, a novel immunotherapy with immuno-myeloid activity directed against TIM-3 receptor” (Immunotherapy Advances, 2022).

Values joined by “and” are separate entries in the source; they are usually repeats but may differ in a detail not shown here. Identical values can stand only once.

In test [1] the target is human TIM-3-Fc fusion protein (human) (UniProt Q8TDQ0). Kind of test: other; competition with SULFO-TAG galectin-9, MSD.
In test [2] the target is cynomolgus monkey TIM-3 expressed on 300.19 cells (cynomolgus monkey). Kind of test: flow cytometry on cells; 300.19 cells expressing human or cynomolgus TIM-3 incubated with titrated sabatolimab at 4°C for 4 hours; PE anti-hIgG secondary; Kd from best-fit binding curves (GraphPad Prism). For orientation: Flow cytometry measures light scatter and fluorescence of single cells or particles in a stream.

Test [3] deals with T1, recombinant human TIM-3/His (human, UniProt Q8TDQ0 22-202).
T1 construct: T-cell immunoglobulin domain and mucin domain-3 (TIM-3), human; Probably the extracellular domain (surmised); also called human recombinant TIM-3; source: bought: Sino Biological Inc
Kind of test: SPR; Biacore; sabatolimab captured (~50 RU) by a human Fab capture antibody amine-coupled on a CM5 chip; TIM-3/His as analyte, 90 nM diluted 1:3, seven concentrations, HBS-EP+ buffer; 1:1 binding model, double reference subtraction. As to conditions: both partners purified. A general note: In SPR one partner is held on a chip, and binding of the other changes the refractive index at the surface.

The target in test [4] is T2, human TIM-3 expressed on 300.19 cells (human, UniProt Q8TDQ0 22-301).
T2 construct: TIM-3, human, expressed on the surface of 300.19 cells; Also used for the functional rows on cells that express human TIM-3 (Raji hTIM-3 o.e., HNT-34, dendritic cells); source: 300.19 cells engineered to express human TIM-3 (lab of Gordon Freeman)
Kind of test: flow cytometry on cells; 300.19 cells expressing human or cynomolgus TIM-3 incubated with titrated sabatolimab at 4°C for 4 hours; PE anti-hIgG secondary; Kd from best-fit binding curves (GraphPad Prism). The settings on record: one partner purified.

sabatolimab Fab'2 came in with an IC50 in test [1] of 9820 pM.

B1: Sabatolimab, humanized anti-TIM-3 monoclonal antibody (hIgG4, S228P) (antibody, V domains shown)
VH: QVQLVQSGAEVKKPGSSVKVSCKASGYTFTSYNMHWVRQAPGQGLEWMGDIYPGNGDTSYNQKFKGRVTITADKSTSTVYMELSSLRSEDTAVYYCARVGGAFPMDYWGQGTTVTVSS
VL: AIQLTQSPSSLSASVGDRVTITCRASESVEYYGTSLMQWYQQKPGKAPKLLIYAASNVESGVPSRFSGSGSGTDFTLTISSLQPEDFATYFCQQSRKDPSTFGGGTKVEIKR
notes: whole heavy chain as printed; whole kappa light chain as printed; IgG4/kappa; humanized from the murine monoclonal antibody 22C1; also called MBG453; sabatolimab whole antibody; source: CHO cells, transiently produced (told of the ten selected humanized clones)
Take B1: the dissociation constant (Kd) in test [2] is 900 pM; in test [3], 176 pM and 162 pM and 163 pM; in test [4] it was 500 ± 100 pM.

As a reminder, the IC50 is the concentration that inhibits the measured activity by half. As a reminder, the Kd is the concentration at which binding is half-saturated.
